Assay results taken from the supplement of paper PMC7125110.
± gives the standard error. For some of these results: Fewer inactive variants are shown than the library holds.

B1: glmS ribozyme (parent)
chain: AUAAAAGCGCCAGAACUACAGAAAUGUAGUUGACGAGGAGGAGGUUUAUCGAAUUUUCGGCGGAUGCCUCCAAA

Tests used:
Conditions in all cases: with glucosamine-6-phosphate
[1] = variants of: B1; test: kcat; higher = faster cleavage; RNA array
In short: (§1)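 Barcoded ribozyme variants, transcribed in situ by E. coli RNA polymerase on sequenced MiSeq chips, were followed via a hybridised Cy3 probe at 37 °C. Glucosamine-6-phosphate ranged from 40 μM to 10 mM in HEPES/KCl/Mg(OAc)2 buffer. kobs came from decay fits to per-tile medians, and kcat and KM from weighted Michaelis–Menten fits.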

[2] = variants of: B1; test: KM; higher = weaker cofactor use; RNA array
In short: as §1

[3] = variants of: B1; test: self-cleavage kobs at 160 uM GlcN6P; higher = faster cleavage; RNA array
In short: as §1

[4] = variants of: B1; test: self-cleavage kobs at 640 uM GlcN6P; higher = faster cleavage; RNA array
In short: as §1

[5] = variants of: B1; test: self-cleavage kobs at 2500 uM GlcN6P; higher = faster cleavage; RNA array
In short: as §1

[6] = variants of: B1; test: self-cleavage kobs at 10000 uM GlcN6P; higher = faster cleavage; RNA array
In short: as §1

[7] = variants of: B1; test: self-cleavage kobs at 40 uM GlcN6P; higher = faster cleavage; RNA array
In short: as §1

Variant | kcat [1] [s⁻¹] | KM [2] [µM] | self-cleavage kobs at 160 uM GlcN6P [3] [s⁻¹] | self-cleavage kobs at 640 uM GlcN6P [4] [s⁻¹] | self-cleavage kobs at 2500 uM GlcN6P [5] [s⁻¹] | self-cleavage kobs at 10000 uM GlcN6P [6] [s⁻¹] | self-cleavage kobs at 40 uM GlcN6P [7] [s⁻¹]
A39U A52G | 0.00113 ± 0.00012 | 4750 ± 800 | 5.2e-05 ± 1.4e-05 | 0.000134 ± 1.3e-05 | 0.000345 ± 5.5e-05 | 0.00078 ± 5.8e-05 | –
G41C G66A | 0.00127 ± 0.00038 | 4000 ± 1900 | 6.76e-05 ± 2.3e-05 | 0.00013 ± 3.9e-05 | 0.000621 ± 0.00011 | 0.000851 ± 0.00016 | –
A39C C67U | 0.000495 ± 9.5e-05 | 1150 ± 400 | 7.1e-05 ± 8.8e-06 | 0.000154 ± 1.3e-05 | 0.000377 ± 3.5e-05 | 0.000443 ± 5.1e-05 | 3.13e-05 ± 7.5e-06
A33U G66U | 1.11e-05 ± 1.2e-06 | – | < 1e-05 | – | – | – | –
A33U U47G | 4.65e-05 ± 3.9e-06 | – | – | – | 4.09e-05 ± 6.6e-06 | 4.2e-05 ± 5.3e-06 | < 1e-05
U31A A42U | 0.000111 ± 8.8e-06 | 3380 ± 670 | – | – | 5.06e-05 ± 1.3e-05 | 8.19e-05 ± 1.4e-05 | –
A48C C70U | 0.000564 ± 5.5e-05 | 3470 ± 540 | – | 8.59e-05 ± 1.5e-05 | 0.000254 ± 3.9e-05 | 0.000401 ± 7.4e-05 | –
C70G C71A | 5.66e-05 ± 1.4e-05 | – | 8.13e-05 ± 1.8e-05 | 7.38e-05 ± 1.2e-05 | 6.86e-05 ± 1.8e-05 | 3.7e-05 ± 9.8e-06 | –
A36U U69C | 2.28e-05 ± 3.7e-06 | – | – | – | – | – | –
C16A U31A | 0.0016 ± 0.00038 | 3990 ± 1400 | 8.65e-05 ± 2.4e-05 | 0.000194 ± 5.1e-05 | 0.000585 ± 0.00016 | 0.00119 ± 0.00027 | –
G37A U47G | 0.000419 ± 0.0001 | 1250 ± 600 | 9.69e-05 ± 1.9e-05 | 0.000127 ± 1.6e-05 | 0.000274 ± 4.4e-05 | 0.000396 ± 5.4e-05 | –
U30A C71A | 0.00089 ± 0.00018 | 603 ± 230 | – | 0.000632 ± 0.0002 | 0.000946 ± 0.00022 | 0.00072 ± 0.00016 | 5.08e-05 ± 1.3e-05
U56A G60A | 2.59e-05 ± 2.9e-06 | – | – | – | – | 2.33e-05 ± 1.2e-05 | –
G59A C70G | 2.32e-05 ± 4.8e-06 | – | – | 2.83e-05 ± 1.3e-05 | – | – | –
C16G C71U | 0.00252 ± 0.00053 | 956 ± 300 | 0.000323 ± 5.6e-05 | 0.000865 ± 0.00012 | 0.00228 ± 0.00066 | 0.00248 ± 0.00036 | 0.000132 ± 1.8e-05
U30C C58U C70U | 3.42e-05 ± 1.3e-05 | – | – | 5.85e-05 ± 2.1e-05 | 3.95e-05 ± 1.9e-05 | – | –
G41C A53U | 0.000241 ± 3.2e-05 | 1290 ± 380 | – | 7.44e-05 ± 1.2e-05 | 0.000197 ± 3.2e-05 | 0.000201 ± 2.9e-05 | –

Variant | kcat [1] [s⁻¹] | KM [2] [µM] | self-cleavage kobs at 160 uM GlcN6P [3] [s⁻¹] | self-cleavage kobs at 640 uM GlcN6P [4] [s⁻¹] | self-cleavage kobs at 2500 uM GlcN6P [5] [s⁻¹] | self-cleavage kobs at 10000 uM GlcN6P [6] [s⁻¹] | self-cleavage kobs at 40 uM GlcN6P [7] [s⁻¹]
A6G U30A | 5.86e-05 ± 1.4e-05 | – | – | – | 3.73e-05 ± 1e-05 | 4.4e-05 ± 1.9e-05 | –
C68A C71G | 2.77e-05 ± 1e-05 | – | 3.29e-05 ± 1e-05 | – | 3.63e-05 ± 9.6e-06 | – | –
C11G C50G | 0.000265 ± 6.8e-05 | – | 0.00024 ± 4.8e-05 | 0.000352 ± 7.5e-05 | 0.000209 ± 5e-05 | 0.000187 ± 9.3e-05 | 6.35e-05 ± 1.4e-05
A53G C70G | 0.000195 ± 1.8e-05 | – | 0.000309 ± 9.5e-05 | 0.000196 ± 2.9e-05 | 0.000173 ± 2.5e-05 | 0.000215 ± 3.6e-05 | 0.000132 ± 2.3e-05
C8G C61A | < 1e-05 | – | < 1e-05 | – | < 1e-05 | – | < 1e-05
G40C C71G | 0.0271 ± 0.0085 | 1170 ± 420 | 0.0028 ± 0.00046 | 0.00953 ± 0.0017 | 0.0203 ± 0.0057 | – | 0.000948 ± 8.7e-05
G63A C68G | 1.26e-05 ± 3.4e-06 | – | – | – | – | – | –
U31G G66C | 0.000137 ± 2.5e-05 | 1360 ± 590 | – | 4.89e-05 ± 1.1e-05 | 7.89e-05 ± 1.3e-05 | 0.000146 ± 3.1e-05 | –
A12G C58G | 0.000117 ± 1.9e-05 | – | – | – | 7.99e-05 ± 1.2e-05 | 9.48e-05 ± 9.8e-06 | –
G32U G51U U55A | 1.45e-05 ± 2.5e-06 | – | – | – | – | – | –
G43U | 4.89e-05 ± 4.3e-06 | 986 ± 410 | – | 1.42e-05 ± 2e-06 | 3.98e-05 ± 1.6e-06 | 4.31e-05 ± 1.2e-06 | < 1e-05
G9A G32C C67A | < 1e-05 | 304 ± 150 | – | – | < 1e-05 | – | –
U49G C70U | 0.001 ± 4.7e-05 | 1860 ± 160 | 7.37e-05 ± 1.3e-05 | 0.000263 ± 3e-05 | 0.00059 ± 7.5e-05 | 0.000837 ± 7.5e-05 | 2.78e-05 ± 1.2e-05
A52G G62A | 2.22e-05 ± 9.7e-06 | – | < 1e-05 | – | – | < 1e-05 | –
G32U U55A | 0.00193 ± 0.00061 | 9310 ± 4500 | 4.22e-05 ± 1.4e-05 | 0.000132 ± 2e-05 | 0.000332 ± 5.9e-05 | 0.00102 ± 8.2e-05 | 2.84e-05 ± 1e-05
C11U A53G | 0.00166 ± 9.2e-05 | 1400 ± 120 | 0.000156 ± 2e-05 | 0.000513 ± 4.2e-05 | 0.00111 ± 0.00013 | 0.00145 ± 0.00012 | 5.07e-05 ± 5.9e-06
